Target: c-Src SH2
Assay: SH2 binding enrichment of the phosphorylated peptide, bacterial display (enrichment ratio); higher = better substrate or ligand; peptides without Tyr show the background
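Wherever SH2 binding enrichment of the phosphorylated peptide, bacterial display is given: peptide library displayed on the E. coli surface as eCPX fusions, selected cells deep-sequenced, score is each peptide's frequency after selection divided by its frequency in the input.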

Point of comparison: RLRKYYLGKYL [KLB_Y906], SH2 binding enrichment 0.341. Against it:
- AVRFIYTIDGS [DCX_Y105_G100A_YF] — higher, 0.723
- EPFELYCEMGS [CBL_Y371_Q367P_YF] — higher, 0.397
- DPHQQYYIAMD [TBX15_Y159] — higher, 1.75
- ATQDDYVLEVR [PTPRZ1_Y2179] — higher, 0.505
- NVTGHYISPFH [PPA2_Y59] — higher, 1.14
- FYVVRYCWLRR [MPZ_Y181] — higher, 0.545
- AGDGRYEVLFL [SEMA3F_Y478_A474G] — higher, 7.93
- EVASVYQSYQP [MAVS_Y92] — higher, 0.609
- TGNGFYFRVFS [MYBPC3_Y1136_I1131T_YF] — higher, 0.363
- PVKTPYSLKRW [BMPR2_Y979_R974P] — higher, 0.992
- LTNDRYLATLT [IL6ST_Y396] — higher, 0.541
- STKELYEKYMI — higher, 0.891
- VLALWYFFLTN [ZDHHC23_Y127_H132N_YF] — higher, 0.985
- GPTLSYGRDGR [MATR3_Y158] — higher, 0.532
- RGKDNYETSQL [SPP1_Y225_S224N] — higher, 0.59
- SLDLSYYPTSS [EMD_Y181] — higher, 1.27
- VPFAQYLAMNK [HARS1_Y138_R137Q] — higher, 0.533
- PYRFIYMAVQH [PTPN11_Y515_Q510P] — higher, 0.759
- QITQVCGFYDE [PPP2CA_Y127_Y127C] — higher, 0.747
- TVQIMYGCDVG [HLA-A_Y123_I119V] — higher, 0.545
- SIFKDYFRFNF [PLA2G2D_Y85_YF] — higher, 1.27
- KIKLNYTLPQD [NRAP_Y523_N519I] — higher, 0.774
- EFEGLYQEGGG [TMEM159_Y159] — higher, 0.607
- EEQKKYFNAMK [SCN5A_Y1494_YF] — higher, 0.421
- TEDELYQLFLQ [RASGRP2_Y378_S381F] — higher, 0.476
- SLKEFYGEDAK [ALDH3A1_Y272] — higher, 0.511
- FPQARYHWLVL [APTX_Y214_K211Q_YF] — higher, 1.13
- FADIAYNYHHG [PAH_Y166_R169H] — higher, 0.477
- DHFNQYEQQKM [CHD7_Y75_YF] — higher, 0.501
- ALAPKYHGGGG [HBB_Y146_H144P] — the same, 0.341
- NFDRVYIFHLR [MYOF_Y1137_YF] — higher, 1.21
- KYLENYYDLKK [MMP3_Y41] — higher, 0.775

Target: SHP2-C SH2
Assay: as above

Point of comparison: FADIAYNYHHG [PAH_Y166_R169H], SH2 binding enrichment 0.654. Against it:
- AVRFIYTIDGS [DCX_Y105_G100A_YF] — higher, 0.988
- EPFELYCEMGS [CBL_Y371_Q367P_YF] — lower, 0.558
- DPHQQYYIAMD [TBX15_Y159] — higher, 0.737
- ATQDDYVLEVR [PTPRZ1_Y2179] — higher, 0.719
- NVTGHYISPFH [PPA2_Y59] — higher, 1.11
- FYVVRYCWLRR [MPZ_Y181] — lower, 0.565
- AGDGRYEVLFL [SEMA3F_Y478_A474G] — lower, 0.573
- EVASVYQSYQP [MAVS_Y92] — higher, 0.8
- RLRKYYLGKYL [KLB_Y906] — lower, 0.441
- TGNGFYFRVFS [MYBPC3_Y1136_I1131T_YF] — lower, 0.62
- PVKTPYSLKRW [BMPR2_Y979_R974P] — higher, 1.2
- LTNDRYLATLT [IL6ST_Y396] — higher, 0.722
- STKELYEKYMI — lower, 0.63
- VLALWYFFLTN [ZDHHC23_Y127_H132N_YF] — higher, 1.03
- GPTLSYGRDGR [MATR3_Y158] — higher, 0.739
- RGKDNYETSQL [SPP1_Y225_S224N] — lower, 0.469
- SLDLSYYPTSS [EMD_Y181] — higher, 0.819
- VPFAQYLAMNK [HARS1_Y138_R137Q] — higher, 0.798
- PYRFIYMAVQH [PTPN11_Y515_Q510P] — higher, 1.12
- QITQVCGFYDE [PPP2CA_Y127_Y127C] — lower, 0.58
- TVQIMYGCDVG [HLA-A_Y123_I119V] — lower, 0.553
- SIFKDYFRFNF [PLA2G2D_Y85_YF] — higher, 1.62
- KIKLNYTLPQD [NRAP_Y523_N519I] — higher, 0.751
- EFEGLYQEGGG [TMEM159_Y159] — higher, 0.789
- EEQKKYFNAMK [SCN5A_Y1494_YF] — higher, 0.847
- TEDELYQLFLQ [RASGRP2_Y378_S381F] — higher, 0.963
- SLKEFYGEDAK [ALDH3A1_Y272] — lower, 0.599
- FPQARYHWLVL [APTX_Y214_K211Q_YF] — higher, 1.47
- DHFNQYEQQKM [CHD7_Y75_YF] — higher, 0.682
- ALAPKYHGGGG [HBB_Y146_H144P] — lower, 0.411
- NFDRVYIFHLR [MYOF_Y1137_YF] — higher, 1.66
- KYLENYYDLKK [MMP3_Y41] — higher, 0.73

Target: Grb2 SH2 (UniProt P62993)
Assay: as above

Grb2 SH2, sequence (P62993 whole entry, looked up): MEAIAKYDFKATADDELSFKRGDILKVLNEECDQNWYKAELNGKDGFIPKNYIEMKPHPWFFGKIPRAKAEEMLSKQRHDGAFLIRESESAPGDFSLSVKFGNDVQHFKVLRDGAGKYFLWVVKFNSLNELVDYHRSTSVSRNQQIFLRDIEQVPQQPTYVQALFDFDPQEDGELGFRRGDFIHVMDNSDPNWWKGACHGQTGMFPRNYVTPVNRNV

Point of comparison: ATQDDYVLEVR [PTPRZ1_Y2179], SH2 binding enrichment 0.856. Against it:
- AVRFIYTIDGS [DCX_Y105_G100A_YF] — higher, 0.928
- EPFELYCEMGS [CBL_Y371_Q367P_YF] — lower, 0.764
- DPHQQYYIAMD [TBX15_Y159] — higher, 0.957
- NVTGHYISPFH [PPA2_Y59] — lower, 0.852
- FYVVRYCWLRR [MPZ_Y181] — lower, 0.761
- AGDGRYEVLFL [SEMA3F_Y478_A474G] — lower, 0.692
- EVASVYQSYQP [MAVS_Y92] — lower, 0.753
- RLRKYYLGKYL [KLB_Y906] — lower, 0.594
- TGNGFYFRVFS [MYBPC3_Y1136_I1131T_YF] — lower, 0.705
- PVKTPYSLKRW [BMPR2_Y979_R974P] — higher, 1.46
- LTNDRYLATLT [IL6ST_Y396] — higher, 1.04
- STKELYEKYMI — lower, 0.798
- VLALWYFFLTN [ZDHHC23_Y127_H132N_YF] — higher, 0.936
- GPTLSYGRDGR [MATR3_Y158] — lower, 0.692
- RGKDNYETSQL [SPP1_Y225_S224N] — lower, 0.681
- SLDLSYYPTSS [EMD_Y181] — higher, 0.921
- VPFAQYLAMNK [HARS1_Y138_R137Q] — higher, 0.959
- PYRFIYMAVQH [PTPN11_Y515_Q510P] — higher, 1.07
- QITQVCGFYDE [PPP2CA_Y127_Y127C] — higher, 0.963
- TVQIMYGCDVG [HLA-A_Y123_I119V] — higher, 0.861
- SIFKDYFRFNF [PLA2G2D_Y85_YF] — higher, 1.77
- KIKLNYTLPQD [NRAP_Y523_N519I] — higher, 0.965
- EFEGLYQEGGG [TMEM159_Y159] — higher, 1.51
- EEQKKYFNAMK [SCN5A_Y1494_YF] — higher, 0.901
- TEDELYQLFLQ [RASGRP2_Y378_S381F] — lower, 0.633
- SLKEFYGEDAK [ALDH3A1_Y272] — higher, 0.916
- FPQARYHWLVL [APTX_Y214_K211Q_YF] — higher, 1.25
- FADIAYNYHHG [PAH_Y166_R169H] — lower, 0.751
- DHFNQYEQQKM [CHD7_Y75_YF] — lower, 0.752
- ALAPKYHGGGG [HBB_Y146_H144P] — lower, 0.607
- NFDRVYIFHLR [MYOF_Y1137_YF] — higher, 1.59
- KYLENYYDLKK [MMP3_Y41] — higher, 1.02

Test system: c-Abl (mouse);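 further: 11-residue human phosphosite peptides and single-mutation variants displayed on the E. coli surface, counted by deep sequencing, each peptide's frequency after selection divided by its frequency in the unselected input library; frequency after pTyr selection over input frequency; kinase dosed for 20-30% of maximal phosphorylation in three min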
Assay: phosphorylation enrichment, bacterial display (enrichment ratio); higher = better substrate or ligand; peptides without Tyr show the background

Point of comparison: RGKDNYETSQL [SPP1_Y225_S224N], phosphorylation enrichment 0.62. Against it:
- AVRFIYTIDGS [DCX_Y105_G100A_YF] — higher, 0.706
- EPFELYCEMGS [CBL_Y371_Q367P_YF] — higher, 0.848
- DPHQQYYIAMD [TBX15_Y159] — lower, 0.59
- ATQDDYVLEVR [PTPRZ1_Y2179] — higher, 0.766
- NVTGHYISPFH [PPA2_Y59] — higher, 0.92
- FYVVRYCWLRR [MPZ_Y181] — higher, 0.758
- AGDGRYEVLFL [SEMA3F_Y478_A474G] — higher, 0.758
- EVASVYQSYQP [MAVS_Y92] — higher, 1.14
- RLRKYYLGKYL [KLB_Y906] — lower, 0.454
- TGNGFYFRVFS [MYBPC3_Y1136_I1131T_YF] — higher, 0.929
- PVKTPYSLKRW [BMPR2_Y979_R974P] — higher, 1.14
- LTNDRYLATLT [IL6ST_Y396] — higher, 1.58
- STKELYEKYMI — lower, 0.518
- VLALWYFFLTN [ZDHHC23_Y127_H132N_YF] — higher, 0.904
- GPTLSYGRDGR [MATR3_Y158] — lower, 0.369
- SLDLSYYPTSS [EMD_Y181] — higher, 0.803
- VPFAQYLAMNK [HARS1_Y138_R137Q] — lower, 0.504
- PYRFIYMAVQH [PTPN11_Y515_Q510P] — higher, 1.67
- QITQVCGFYDE [PPP2CA_Y127_Y127C] — higher, 1.08
- TVQIMYGCDVG [HLA-A_Y123_I119V] — higher, 0.737
- SIFKDYFRFNF [PLA2G2D_Y85_YF] — higher, 0.821
- KIKLNYTLPQD [NRAP_Y523_N519I] — lower, 0.531
- EFEGLYQEGGG [TMEM159_Y159] — lower, 0.551
- EEQKKYFNAMK [SCN5A_Y1494_YF] — lower, 0.616
- TEDELYQLFLQ [RASGRP2_Y378_S381F] — higher, 1.13
- SLKEFYGEDAK [ALDH3A1_Y272] — lower, 0.561
- FPQARYHWLVL [APTX_Y214_K211Q_YF] — higher, 0.858
- FADIAYNYHHG [PAH_Y166_R169H] — lower, 0.415
- DHFNQYEQQKM [CHD7_Y75_YF] — lower, 0.599
- ALAPKYHGGGG [HBB_Y146_H144P] — lower, 0.423
- NFDRVYIFHLR [MYOF_Y1137_YF] — higher, 0.91
- KYLENYYDLKK [MMP3_Y41] — higher, 0.736

— the supplement of paper PMC10065799, “High-throughput profiling of sequence recognition by tyrosine kinases and SH2 domains using bacterial peptide display” (eLife, 2023)
